What all share (experiment): EMSA
What all share (settings): pH 7.5, 30 min at 37 C
For orientation: In EMSA bound probe runs differently from free probe, usually more slowly.

For data set [1], the target named is T1, GntR-S41A S41A (Streptococcus suis serotype 2 ZY05719) (UniProt A0A0H3MTN4).
T1 sequence: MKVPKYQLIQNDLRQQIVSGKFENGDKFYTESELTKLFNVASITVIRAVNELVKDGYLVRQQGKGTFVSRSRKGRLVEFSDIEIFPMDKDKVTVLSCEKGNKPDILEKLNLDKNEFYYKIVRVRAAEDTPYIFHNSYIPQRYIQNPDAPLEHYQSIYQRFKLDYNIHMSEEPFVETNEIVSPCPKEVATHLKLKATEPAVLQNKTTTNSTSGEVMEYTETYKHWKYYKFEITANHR

Data set [2] concerns the target T2, GntR (Streptococcus suis serotype 2 ZY05719) (UniProt A0A0H3MTN4).
T2 sequence: T1 sequence with A41S

Data set [3] addresses T3, GntR-S41E S41E (Streptococcus suis serotype 2 ZY05719) (UniProt A0A0H3MTN4).
T3 sequence: T1 sequence with A41E

Substitutions are numbered along the chain they refer to.

On to “GCCATAATGTAAAATCTCACTTTCGAAAATATATTTTTTTACGAACTATATTATACAATATAAATGTTACCGATTTCAAAAAATATGCTCAGAATATCACATTTTTTTCAAAAAGTTTTTGAAATGCTATTTTCTTTAAACAATGTAAAGATATATAAAAGCAAAAACCTAGATTTCTCTAGGTTTCTCTTAACGTACTTGTTCAAAACGC (double strand) [nox promoter]”, for which the binding entry in data set [1] is “binds”; in data set [2], “binds”; in data set [3] it was “no binding”.
